No end group written: not given here. *: point of attachment. Biotin = O=C1N[C@H]2[C@H](CS[C@H]2CCCCC(=O)*)N1; linker = not defined here

Assay [1] deals with PKA-phosphorylated full-length Tau (Homo sapiens) (UniProt P10636). Briefly: ELISA: plate coated with 0.1 µg/ml PKA-phosphorylated full-length Tau, IgG titrated 0.06 pM to 1 nM, anti-human Fc-peroxidase/TMB, absorbance 450 nm [panel B]. For orientation: ELISA stands for enzyme-linked immunosorbent assay.
In assay [2] the target is T1, Non-phospho. (not fully specified; printed as Biotin - linker - GDTSPRHLSNVSSTGSID; reading uncertain).
T1 construct: also called non-phosphorylated biotinylated Tau 401-418 peptide
T1 peptide: {Biotin-linker}-GDTSPRHLSNVSSTGSID
Put plainly: ELISA: plate coated with 5 µg/ml IgG, 10 nM biotinylated peptide in solution, streptavidin-peroxidase/TMB, absorbance 450 nm. On the procedure:
FIG. 3. Binding of immobilized IgG antibodies to Tau-derived biotinylated peptides containing pS404 and/or pS409 as measured by ELISA. […] 10 nM of the biotinylated peptides shown in FIG. 3, and 5 μg/ml IgG, were used.
Specificity of the top five clones for phosphoserine 404 and phosphoserine 409 was also assessed by ELISA. In one experiment (FIG. 3), Nunc maxisorp microplates were coated with 5 μg/ml IgG in coating buffer (sodium carbonate pH9.6) for 70 minutes at ambient temperature. Non-specific binding sites were blocked with BBT for a minimum of 2 hours then the plates washed and 10 nM biotinylated peptide in BBT added. After 1.5 hours bound peptide was detected by a 65 minute incubation with peroxidase-conjugated Streptavidin and detection with TMB as described above. […] The peptides synthesized and used in this experiment (which correspond to amino acids 401-418 of full-length Tau) have the following amino acid sequences (Table B): […]

The target in assay [3] is PKA-phosphorylated full-length Tau (Homo sapiens) (UniProt P10636). Briefly: ELISA: plate coated with 1 µg/ml PKA-phosphorylated full-length Tau, IgG titrated 0.06 pM to 1 nM, anti-human Fc-peroxidase/TMB, absorbance 450 nm [panel A].
Assay [4] shares this target. Put plainly: SPR Biacore 2000, bivalent IgG1 analyte, ~153 RU PKA-phospho Tau, ligand density 1.
For assay [5] the target is unchanged. Put plainly: SPR Biacore 2000, bivalent IgG1 analyte, ~824 RU PKA-phospho Tau, ligand density 2. For orientation: In SPR one partner is held on a chip, and binding of the other changes the refractive index at the surface.

Sequence of PKA-phosphorylated full-length Tau (Homo sapiens) (P10636 other isoform, or with tags, fused parts or gaps limits assumed): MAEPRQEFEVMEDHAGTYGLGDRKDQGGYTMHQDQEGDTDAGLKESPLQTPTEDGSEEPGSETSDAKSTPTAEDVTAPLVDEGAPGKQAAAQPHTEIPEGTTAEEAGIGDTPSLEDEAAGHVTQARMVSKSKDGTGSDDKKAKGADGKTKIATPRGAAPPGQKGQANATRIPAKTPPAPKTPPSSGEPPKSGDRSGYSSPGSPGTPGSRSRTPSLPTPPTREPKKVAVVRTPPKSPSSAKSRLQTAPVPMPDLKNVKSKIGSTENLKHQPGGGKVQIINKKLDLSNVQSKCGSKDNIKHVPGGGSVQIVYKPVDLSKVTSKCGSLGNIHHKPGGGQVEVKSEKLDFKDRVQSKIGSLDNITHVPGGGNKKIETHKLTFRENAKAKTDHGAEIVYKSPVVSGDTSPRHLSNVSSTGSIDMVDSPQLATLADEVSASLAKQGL

B1: TAM20 IgG1 (antibody, V domains shown)
VH: EVQLVQSGAEVKKPGSSVKVSCKASGYTFTDYYMNWVRQAPGQGLEWIGDINPNRGGTTYNQKFKGRVTITVDKSTSTAYMELSSLRSEDTAVYYCASYYAVGYWGQGTTVTVSS
VL: DIVMTQTPLSLPVTPGEPASISCRSSQSLVHSHGRTYLHWYLQKPGQSPQLLIYKVSNRFFGVPDRFSGSGSGTDFTLKISRVEAEDVGVYFCSQTRHFPYTFGGGTKVEIKR
For the molecule B1, the half-maximal effective concentration (EC50 (read off the curve)) in assay [1] turned out to be 20 pM. Moreover, the binding result in assay [2] was “no binding (tested: 10 nM)”. In addition, the EC50 (read off the curve) in assay [3] turned out to be 6 pM. Also, in assay [4], the Kd is 0.8 nM, the koff is 0.0012 s⁻¹ and the kon turned out to be 1.6e+06 M⁻¹ s⁻¹. In assay [5], this molecule displayed a Kd of 0.2 nM, a koff of 0.0003 s⁻¹ and a kon of 1.6e+06 M⁻¹ s⁻¹.

The EC50 (read off the curve) is the concentration giving half of the maximal effect. The low end stands for an effect from little substance, the high end for a need for much substance. A word on the koff: it is a measure of how fast the partners let go of each other. Usually kon stands for a measure of how fast the partners come together. Lower therefore signals slower complex formation.

Source of the values: patent publication US20160024193A1 (AC IMMUNE S A, published 2016).
